Test results as given in patent US20110217734A1 (UNIVERSITY OF ILLINOIS AT URBANA CHAMPAIGN, published 2011).

Molecular target: the molecule itself
Assay: size-exclusion chromatography, self-association

B1: RhiG-C-His (enzyme)
chain: MKMQLIDCTLRDGGNFNNWFFSAEDINQIILHLDKANVNIIEIGYIGGSGSNKEKSVGSLANCTPELLEQLPKTIHSHLAAMVVPSVCELHLLDNLNPQLIPWIRVASYPHNAEDALPYIEYLKNRGFHVSFNVMAASYIEEKDMAELAKKSHVFGADVFYMADSFGNLTPDGVRKRVAAAFDQADCPVGFHGHNNLGLAFTNALEAMDAGATFIDTSLCGMARGAGNLPTEQFVSAIHHWDKFGDIPYKLHPILTAAEYVLSSILSSPMKISTPEIISGISNIHYYFYDLVISKCREVNLDPLQVSTLLGQTLPKRVDMSYIESVIDQNFRQESAK
notes: Recombinant protein expressed in E. coli BL21(DE3), 38.7 kDa per chain; Size-exclusion chromatography gave a native MW of about 75 kDa (homodimer); also called RhiG purified as a C-terminal fusion with a hexahistidine tag; not shown: C-terminal hexahistidine tag from the pET26b vector
B1: binds.
